Reference: PMC10439913
Blank lines part the entries; values can stand above or below the substance they belong to.

How the values were obtained:
[1] = target: Domain-11 of human M6P/IGF2R (D11), C-terminally His-tagged (human) (UniProt P11717); test: radioligand binding; competition of cold ligand with [125I]-monoiodotyrosyl-Tyr2-IGF2 for immobilized D11; Kd of the tracer 2 nM
His-tagged IGFBP3 [2] = target: His-tagged IGFBP3 (UniProt P17936); test: radioligand binding; saturation binding of 0-5 nM [125I]-monoiodotyrosyl-Tyr2-IGF2 to His-tagged IGFBP3 immobilized on a 96-well plate via neutravidin and Ni-NTA iBodies; 16 h at 5 °C, 100 mM HEPES pH 7.6, 100 mM NaCl, 1% BSA; nonspecific binding with 10 µM unlabeled IGF2
His-tagged IGFBP3 [3] = target: His-tagged IGFBP3 (UniProt P17936); test: radioligand binding; saturation binding of 0-5 nM [125I]-monoiodotyrosyl-IGF2 to His-tagged IGFBP3 (25 ng/well) immobilized via neutravidin and Ni-NTA iBodies; 16 h at 5 °C, 100 mM HEPES pH 7.6, 100 mM NaCl, 1% BSA
[4] = target: mannose-6-phosphate/IGF2 receptor (M6P/IGF2R), native in R- cells (mouse (endogenous in R- cells)) (UniProt Q07113); test: radioligand binding; saturation binding of 0-5 nM [125I]-monoiodotyrosyl-Tyr2-IGF2 to 14,000 R- cells per well; 16 h at 5 °C, 100 mM HEPES pH 7.6, 100 mM NaCl, 1% BSA; nonspecific binding with 10 µM unlabeled IGF2; one-site fit
[5] = target: IGFBP3:ALS complex, preformed on immobilized His-tagged ALS (UniProt P35858); test: radioligand binding; saturation binding of 0-5 nM [125I]-monoiodotyrosyl-IGF2 to IGFBP3 (no His-tag, 25 ng/well) preformed in complex with His-tagged ALS (10 ng/well) immobilized via neutravidin and Ni-NTA iBodies; 16 h at 5 °C, 100 mM HEPES pH 7.6, 100 mM NaCl, 1% BSA
[6] = target: Domain-11 of human M6P/IGF2R (D11) (human) (UniProt P11717); test: radioligand binding; competition of cold ligand with [125I]-monoiodotyrosyl-Tyr2-IGF2 for immobilized D11 (as in ref. 33); affinity relative to IGF2
[7] = target: IGF1 receptor (IGF1R) (human) (UniProt P08069); test: radioligand binding; competition of cold ligand with [125I]-iodotyrosyl-IGF1 for human IGF-1R on R+39 mouse fibroblasts; one-site fit; affinity relative to IGF1
[8] = target: insulin receptor isoform A (IR-A) (human) (UniProt P06213); test: radioligand binding; competition of cold ligand with [125I]-monoiodotyrosyl-TyrA14-insulin for human IR-A on whole IM-9 lymphocytes; one-site fit; affinity relative to human insulin
[9] = target: insulin receptor isoform B (IR-B) (human) (UniProt P06213); test: radioligand binding; competition of cold ligand with [125I]-monoiodotyrosyl-TyrA14-insulin for human IR-B on transfected mouse fibroblasts; one-site fit; affinity relative to human insulin
[10] = target: mannose-6-phosphate/IGF2 receptor (M6P/IGF2R), native in R- cells (mouse (endogenous in R- cells)) (UniProt Q07113); test: radioligand binding; competition of cold ligand (10^-12-10^-6 M) with [125I]-monoiodotyrosyl-Tyr2-IGF2 (43,000 cpm) for M6P/IGF2R on R- cells; 16 h at 5 °C, 100 mM HEPES pH 7.6, 100 mM NaCl, 1% BSA; affinity relative to IGF2
[11] = target: IGFBP3:ALS complex, preformed on immobilized His-tagged ALS (UniProt P35858); test: radioligand binding; competition of cold ligand (10^-12-10^-6 M) with [125I]-monoiodotyrosyl-Tyr2-IGF2 (43,000 cpm) for the IGFBP3:ALS complex immobilized through the His-tag of ALS; 16 h at 5 °C, HEPES pH 7.6; affinity relative to IGF2
His-tagged IGFBP3 [12] = target: His-tagged IGFBP3 (UniProt P17936); test: radioligand binding; competition of cold ligand (10^-12-10^-6 M) with [125I]-monoiodotyrosyl-Tyr2-IGF2 (43,000 cpm) for His-tagged IGFBP3 immobilized via neutravidin and Ni-NTA iBodies; 16 h at 5 °C, HEPES pH 7.6; affinity relative to IGF2
[13] = target: human insulin receptor isoform A (IR-A) in human IM-9 lymphocytes (human) (UniProt P06213); test: radioligand binding; competition of cold ligand with [125I]-monoiodotyrosyl-TyrA14-insulin on human IM-9 lymphocytes; Kd by one-site fit, Kd of the tracer 0.3 nM
[14] = target: human IGF1 receptor in transfected mouse fibroblasts (R+39 cells) (human) (UniProt P08069); test: radioligand binding; competition of cold ligand with [125I]-iodotyrosyl-IGF1 on R+39 cells (mouse fibroblasts with human IGF-1R); Kd by one-site fit, Kd of the tracer 0.2 nM
[15] = target: human insulin receptor isoform B (IR-B) in transfected mouse fibroblasts (human) (UniProt P06213); test: radioligand binding; competition of cold ligand with [125I]-monoiodotyrosyl-TyrA14-insulin on mouse fibroblasts transfected with human IR-B; Kd by one-site fit, Kd of the tracer 0.3 nM
[16] = target: native M6P/IGF2R in R- cells (mouse embryonic fibroblasts) (mouse (endogenous in R- cells)) (UniProt Q07113); test: radioligand binding; competition of cold ligand (10^-12-10^-6 M) with [125I]-monoiodotyrosyl-Tyr2-IGF2 on R- cells; 16 h at 5 °C, 100 mM HEPES pH 7.6, 100 mM NaCl, 1 mM EDTA, 1% BSA; Kd of the tracer 8.2 nM
His-tagged IGFBP3 [17] = target: His-tagged IGFBP3 (UniProt P17936); test: radioligand binding; competition of cold ligand (10^-12-10^-6 M) with [125I]-monoiodotyrosyl-Tyr2-IGF2 for His-tagged IGFBP3 immobilized on a 96-well plate via neutravidin and Ni-NTA iBodies; 16 h at 5 °C, 100 mM HEPES pH 7.6, 100 mM NaCl, 1% BSA
[18] = target: IGFBP3:ALS complex, preformed on immobilized His-tagged ALS (UniProt P35858); test: radioligand binding; competition of cold ligand (10^-12-10^-6 M) with [125I]-monoiodotyrosyl-Tyr2-IGF2 for the IGFBP3:ALS complex immobilized through the His-tag of ALS; 16 h at 5 °C, 100 mM HEPES pH 7.6, 100 mM NaCl, 1% BSA; Kd of the tracer 5.9 nM

Chain of IGFBP3:ALS complex, preformed on immobilized His-tagged ALS (P35858 28-605, chain 1 of 2): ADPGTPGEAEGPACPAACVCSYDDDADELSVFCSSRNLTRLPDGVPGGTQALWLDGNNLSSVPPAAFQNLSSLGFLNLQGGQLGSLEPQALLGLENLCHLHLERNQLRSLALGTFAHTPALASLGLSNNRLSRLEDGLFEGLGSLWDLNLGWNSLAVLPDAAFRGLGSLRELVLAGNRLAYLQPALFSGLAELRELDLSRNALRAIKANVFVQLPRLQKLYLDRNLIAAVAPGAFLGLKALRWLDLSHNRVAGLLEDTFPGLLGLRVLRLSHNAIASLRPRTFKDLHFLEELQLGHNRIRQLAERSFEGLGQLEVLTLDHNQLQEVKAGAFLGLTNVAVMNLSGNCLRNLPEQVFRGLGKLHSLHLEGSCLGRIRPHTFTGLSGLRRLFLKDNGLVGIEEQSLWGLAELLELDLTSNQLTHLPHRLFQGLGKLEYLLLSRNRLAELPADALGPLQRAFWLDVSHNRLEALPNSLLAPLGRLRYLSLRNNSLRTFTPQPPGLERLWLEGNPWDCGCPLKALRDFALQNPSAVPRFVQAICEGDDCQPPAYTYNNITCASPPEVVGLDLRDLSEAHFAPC
Chain of IGFBP3:ALS complex, preformed on immobilized His-tagged ALS (P17936 28-291, chain 2 of 2, further chain): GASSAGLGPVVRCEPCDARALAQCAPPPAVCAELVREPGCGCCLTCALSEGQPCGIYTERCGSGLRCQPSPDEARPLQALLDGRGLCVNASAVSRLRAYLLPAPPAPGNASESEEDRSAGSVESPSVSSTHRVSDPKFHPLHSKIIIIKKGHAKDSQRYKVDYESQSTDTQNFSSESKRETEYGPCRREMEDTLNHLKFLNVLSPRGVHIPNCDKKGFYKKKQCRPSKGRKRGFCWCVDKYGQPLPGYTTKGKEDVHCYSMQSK
Chain of mannose-6-phosphate/IGF2 receptor (M6P/IGF2R), native in R- cells (mouse (endogenous in R- cells)) (Q07113 36-2483): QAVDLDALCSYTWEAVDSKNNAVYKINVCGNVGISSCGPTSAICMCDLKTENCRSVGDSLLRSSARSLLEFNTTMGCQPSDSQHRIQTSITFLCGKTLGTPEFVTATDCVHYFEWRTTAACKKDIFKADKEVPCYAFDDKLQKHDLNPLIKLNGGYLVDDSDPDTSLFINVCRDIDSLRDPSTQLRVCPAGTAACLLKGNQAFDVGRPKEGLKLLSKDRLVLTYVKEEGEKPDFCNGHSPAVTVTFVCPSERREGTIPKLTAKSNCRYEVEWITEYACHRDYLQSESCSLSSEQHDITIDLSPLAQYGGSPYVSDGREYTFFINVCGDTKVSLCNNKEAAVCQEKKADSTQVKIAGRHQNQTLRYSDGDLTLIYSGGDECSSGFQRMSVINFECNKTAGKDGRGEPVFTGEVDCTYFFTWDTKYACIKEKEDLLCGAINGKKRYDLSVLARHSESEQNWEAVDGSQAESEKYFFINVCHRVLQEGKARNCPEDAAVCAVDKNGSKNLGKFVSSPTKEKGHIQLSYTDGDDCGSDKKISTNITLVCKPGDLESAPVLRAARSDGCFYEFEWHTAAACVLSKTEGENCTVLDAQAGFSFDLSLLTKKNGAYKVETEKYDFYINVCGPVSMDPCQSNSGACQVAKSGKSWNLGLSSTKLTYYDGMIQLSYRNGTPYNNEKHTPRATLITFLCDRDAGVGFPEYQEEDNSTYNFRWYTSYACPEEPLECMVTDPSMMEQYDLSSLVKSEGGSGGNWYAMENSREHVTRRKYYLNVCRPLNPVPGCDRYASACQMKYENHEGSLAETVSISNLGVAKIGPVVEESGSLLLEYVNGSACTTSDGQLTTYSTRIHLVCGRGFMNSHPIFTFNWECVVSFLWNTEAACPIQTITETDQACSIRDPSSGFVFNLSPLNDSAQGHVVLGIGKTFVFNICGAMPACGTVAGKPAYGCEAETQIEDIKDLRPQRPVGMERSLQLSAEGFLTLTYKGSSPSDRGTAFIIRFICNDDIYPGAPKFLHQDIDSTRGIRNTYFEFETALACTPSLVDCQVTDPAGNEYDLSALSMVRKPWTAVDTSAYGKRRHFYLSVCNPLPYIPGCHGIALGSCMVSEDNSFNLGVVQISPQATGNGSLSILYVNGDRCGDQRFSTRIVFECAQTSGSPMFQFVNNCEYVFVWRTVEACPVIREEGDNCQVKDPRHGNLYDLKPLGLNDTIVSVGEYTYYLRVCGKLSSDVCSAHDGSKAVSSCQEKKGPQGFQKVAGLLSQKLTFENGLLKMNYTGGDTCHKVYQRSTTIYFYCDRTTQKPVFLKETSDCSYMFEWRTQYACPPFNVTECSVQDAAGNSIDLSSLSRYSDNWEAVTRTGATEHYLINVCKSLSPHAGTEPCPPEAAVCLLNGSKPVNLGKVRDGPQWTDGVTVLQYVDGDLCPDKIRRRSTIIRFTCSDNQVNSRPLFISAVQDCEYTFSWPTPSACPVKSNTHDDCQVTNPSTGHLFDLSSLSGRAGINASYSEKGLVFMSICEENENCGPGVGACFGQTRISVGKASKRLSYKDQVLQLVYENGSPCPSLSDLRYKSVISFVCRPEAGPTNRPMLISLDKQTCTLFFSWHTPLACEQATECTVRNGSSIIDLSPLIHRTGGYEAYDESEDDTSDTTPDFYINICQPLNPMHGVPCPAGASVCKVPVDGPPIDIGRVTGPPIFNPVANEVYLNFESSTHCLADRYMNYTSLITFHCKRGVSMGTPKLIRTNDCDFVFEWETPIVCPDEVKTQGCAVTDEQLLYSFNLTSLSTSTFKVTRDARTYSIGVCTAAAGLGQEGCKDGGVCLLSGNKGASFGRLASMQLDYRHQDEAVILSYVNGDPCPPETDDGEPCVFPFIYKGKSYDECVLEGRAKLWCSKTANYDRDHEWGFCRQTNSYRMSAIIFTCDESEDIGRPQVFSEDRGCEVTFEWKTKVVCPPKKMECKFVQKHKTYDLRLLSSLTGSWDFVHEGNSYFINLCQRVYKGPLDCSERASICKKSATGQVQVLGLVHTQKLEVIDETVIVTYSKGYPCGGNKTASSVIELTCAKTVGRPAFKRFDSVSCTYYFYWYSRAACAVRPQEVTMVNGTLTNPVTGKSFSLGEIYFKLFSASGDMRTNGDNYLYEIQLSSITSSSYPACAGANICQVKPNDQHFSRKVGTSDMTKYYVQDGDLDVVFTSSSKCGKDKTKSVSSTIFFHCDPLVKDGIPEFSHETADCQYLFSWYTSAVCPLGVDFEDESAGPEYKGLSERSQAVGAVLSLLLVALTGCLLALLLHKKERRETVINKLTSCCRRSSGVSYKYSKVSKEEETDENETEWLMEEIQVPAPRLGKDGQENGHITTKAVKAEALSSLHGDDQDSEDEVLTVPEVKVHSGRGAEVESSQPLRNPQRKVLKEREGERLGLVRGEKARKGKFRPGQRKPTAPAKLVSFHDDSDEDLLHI
Chain of His-tagged IGFBP3 (P17936 28-291): as the sequence (P17936 28-291, chain 2 of 2, further chain) above
Chain of native M6P/IGF2R in R- cells (mouse embryonic fibroblasts) (mouse (endogenous in R- cells)) (Q07113 36-2483): as the sequence (Q07113 36-2483) above
Chain of Domain-11 of human M6P/IGF2R (D11) (human) (P11717 1514-1648): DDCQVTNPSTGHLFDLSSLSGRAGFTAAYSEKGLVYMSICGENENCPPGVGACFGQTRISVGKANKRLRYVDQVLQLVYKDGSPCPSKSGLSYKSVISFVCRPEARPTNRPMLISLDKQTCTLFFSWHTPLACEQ

Substance: Insulin-like Growth Factor-2 (IGF2), native mature 67-amino-acid protein (from UniProt P01344 25-91) (ligand)
- Kd [1]: 1.29 nM

Substance: [125I]-monoiodotyrosyl-Tyr2-IGF2 (ligand)
- Kd (His-tagged IGFBP3 [2]): 0.59 nM

Substance: [^125I]-monoiodotyrosyl-Tyr2-IGF2 (ligand)
- Kd (His-tagged IGFBP3 [3]): 0.56 nM
- Kd [4]: 8.2 nM
- Kd [5]: 5.9 nM

Substance: big-IGF2(104), non-glycosylated (ligand)
- Kd [1]: 0.19 nM
- Kd [13]: 2.75 nM
- Kd [14]: 2.48 nM
- Kd [15]: 8.83 nM
- Kd [16]: 0.14 nM
- Kd (His-tagged IGFBP3 [17]): 0.14 nM
- Kd [18]: 5.58 nM

Other lines, results leading:

- relative binding affinity (% of IGF2) [6]: 73%
- relative binding affinity (% of IGF1) [7]: 14.8%
- relative binding affinity (% of human insulin) [8]: 7.1%
- relative binding affinity (% of human insulin) [9]: 2.7%
- relative binding affinity (% of IGF2) [10]: 227%
- relative binding affinity (% of IGF2) [11]: 58%
- relative binding affinity (% of IGF2) (His-tagged IGFBP3 [12]): 70%
Substance: big-IGF2(87) (ligand)

- Kd [1]: 1.77 nM
- Kd [13]: 3.82 nM
- Kd [14]: 1.6 nM
- Kd [15]: 9.47 nM
- Kd [16]: 0.56 nM
- Kd (His-tagged IGFBP3 [17]): 0.29 nM
- Kd [18]: 1.63 nM
Substance: big-IGF2(87), non-glycosylated (ligand)

- relative binding affinity (% of IGF2) [6]: 698%
- relative binding affinity (% of IGF1) [7]: 9.7%
- relative binding affinity (% of human insulin) [8]: 9.8%
- relative binding affinity (% of human insulin) [9]: 2.9%
- relative binding affinity (% of IGF2) [10]: 887%
- relative binding affinity (% of IGF2) [11]: 17%
- relative binding affinity (% of IGF2) (His-tagged IGFBP3 [12]): 146%
Substance: big-IGF2(104) (ligand)

- Kd [1]: 2.31 nM
Substance: pro-IGF2(156), non-glycosylated (from UniProt P01344 25-180) (ligand)
